{"source": "patent US10836808B2", "about": "“Binding-triggered transcriptional switches and methods of use thereof” (The Regents of the University of California, priority 2015, dated 2020)", "key": {"gamma secretase": {"tested_on": "gamma secretase", "assay": "Chimeric Notch (anti-CD19 scFv/tTA) receiver cell GFP reporter with CD19 sender cells, with or without DAPT", "assay_type": "cell-based, mouse", "settings": "1 mM DAPT, in the presence of CD19 sender cells", "excerpt": "DAPT is a gamma secretase inhibitor. The data are expressed as GFP^+“receiver” cells."}, "[1]": {"tested_on": "HCT116 colon cancer cells", "assay": "Sensitivity of cancer cell lines to recombinant TRAIL", "assay_type": "cell-based", "settings": "1 to 200 ng/mL, 24 hours", "experimental": "(§1) The cells were then harvested and stained with the live/dead stain, SYTOX Blue (Thermo Scientific #S34857) and the fraction of dead cells was determined by flow cytometry on a BD LSR II."}, "K562 cells": {"tested_on": "K562 cells", "assay": "Sensitivity of cancer cell lines to recombinant TRAIL", "assay_type": "cell-based", "settings": "1 to 200 ng/mL, 24 hours", "experimental": "as §1"}}, "data": [{"molecule": "C[C@H](NC(=O)Cc1cc(F)cc(F)c1)C(=O)NC(C(=O)OC(C)(C)C)c1ccccc1", "note": "(some centres unmarked) [DAPT]", "values": [{"measurement": "GFP+ receiver cells", "setting": "gamma secretase", "value": "at control, untreated levels"}]}, {"molecule": "soluble TRAIL: an inducer of apoptosis and a cancer therapeutic (protein, UniProt P50591 39-281, looked up, extracellular domain, an inducer of apoptosis and a cancer therapeutic) extracellular domain: TNELKQMQDKYSKSGIACFLKEDDSYWDPNDEESMNSPCWQVKWQLRQLVRKMILRTSEETISTVQEKQQNISPLVRERGPQRVAAHITGTRGRSNTLSSPNSKNEKALGRKINSWESSRSGHSFLSNLHLRNGELVIHEKGFYYIYSQTYFRFQEEIKENTKNDKQMVQYIYKYTSYPDPILLMKSARNSCWSKDAEYGLYSIYQGGIFELKENDRIFVSVTNEHLIDMDHEASFFGAFLVG", "values": [{"measurement": "killing of cancer cell line", "setting": "[1]", "value": "effective at killing"}, {"measurement": "killing of cancer cell line", "setting": "[1]; listed as recombinant TRAIL", "value": "sensitive to low level TRAIL treatment"}, {"measurement": "induction of apoptosis in cancer cell line", "setting": "K562 cells", "value": "does not induce apoptosis even at high doses"}, {"measurement": "induction of apoptosis in cancer cell line", "setting": "K562 cells; listed as recombinant TRAIL", "value": "insensitive to TRAIL treatment"}]}]}
